Laboratory results published in US20230204594A1, “SYSTEMS AND METHODS FOR REAL-TIME CELLULAR DRUG-TARGET ENGAGEMENT” (NERD BIO LLC, priority 2021, published 2023).

Columns and labels:
Assay in all cases: cell-based or functional assay
[1] = target: MTH1 target polypeptide with a 10 amino acid spacer and a carboxy terminal S-tag acceptor peptide
[2] = target: MTH1 target polypeptide with a 3 amino acid spacer and a carboxy terminal S-tag acceptor peptide
[3] = target: MTH1-S-tag fusion protein with no linker between MTH1 and the S-tag peptide

Measured: S protein concentration at which the fluorescent signal starts to saturate

Chain of His tagged RNase donor protein (S protein) (P61823 other isoform, or with tags, fused parts or gaps limits assumed): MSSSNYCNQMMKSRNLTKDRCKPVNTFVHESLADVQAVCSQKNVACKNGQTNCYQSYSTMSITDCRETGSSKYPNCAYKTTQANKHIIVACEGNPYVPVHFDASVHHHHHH

His tagged RNase donor protein (S protein) (from UniProt P61823 47-150)
1 to 2 ng/µL: all assays above
